Data on seven molecules can be found in patent US8492147B2, “Method of inducing the differentiation of embryonic stem cells into nerve by serum-free suspension culture” (Riken, priority 2004, dated 2013).

For assay [1], the system named is Mouse ES cells (EB5 cells). The assay is described as follows: SFEB culture with retinoic acid, Bf1+ cells and RT-PCR of rostral/caudal markers. To be noted: RA 0.2 μM after 3-5 days of the culture. The class given is cell-based. The procedure:
Specifically, As ES cells, those cultured for maintenance by conventional culture method without feeder cells supplemented with 1% fetal calf serum, 10% KSR (Knockout Serum Replacement), and LIF were used for SFEB method (see, Neuron, Vol. 28: 31-40 (2000)). Next, after ES cell colonies were subjected to trypsin/EDTA treatment to make single cells, 10 ml of the cells (6×10^4 cells/ml) were seeded on cell non-adhesive culture plastic plate (diameter: 10 cm), and incubated at 37° C., 5% CO2 for five days. As medium, differentiation medium composed of 500 ml of GMEM, 5 ml of 100×NEAA, 5 ml of 100×pyruvate, and 0.5 ml of 1×10^−1 M 2-mercaptoethanol, and 5% KSR (Knockout Serum Replacement). […]
Mouse ES cells (EB5 cells) were subjected to serum-free floating culture by the SFEB method in the same manner as Example 1 for 5 days, after which they were dispersed by trypsin/EDTA treatment, seeded to a cell culture slide coated with poly-D lysine/laminin, and cultured in a differentiation medium (as described above) for 2 days, and then in a GMEM+N2 medium (composition: GMEM+1×N-2 Supplement (manufactured by Gibco, a supply of ×100 concentration was used after dilution), 0.1 mM non-essential amino acid, 1 mM sodium pyruvate, 0.1 mM 2-mercaptoethanol) for 3 days. The finally obtained differentiated cells were analyzed by the fluorescent antibody method using anti-Bf1 antibody. […]

Assay [2] deals with ES cells. The assay is described as follows: BMP treatment of ES cells cultured by SFEB method. It counts as cell-based. From the text: (§1) It is interesting to elucidate what kinds of signaling regulate this difference by analyzing RNA profile for them.
For assay [3], the system named is ES cells. The assay is described as follows: SDIA method on PA6 cells with BMP4, Math1 and cerebellar granule cell markers. It counts as cell-based. The source says:
Although there have been no reports on differentiation induction of ES cells into cerebellar tissue, the present inventors have already reported that Math1 is induced by treating neurons differentiated by the SDIA method with BMP4 (see Proc. Natl. Acad. Sci. USA, 100, 5828-5833). […] Therefore, the Math1-positive cells induced by the SDIA method were postulated not to be cerebellar granule cells, but to be Math1-positive cells of the pons, medulla oblongata, spinal cord and the like.

In assay [4] the test system is ES cells. Put plainly: BMP treatment of ES cells cultured on collagen-coated dish. It counts as cell-based. To be noted: BMP treatment (5 nM).
Source text: as §1

For a further assay, the system named is Sox1/GFP-mES cells. The assay is described as follows: SFEB serum-free floating culture of Sox1/GFP-mES cells, frequency of Sox1-GFP+ cells (FACS). As to conditions: for experiment-to-experiment variation of GFP expression value: initial cell density 5×10^4 cell/ml, without addition varied by about 10-15%. The class given is cell-based, mouse. The protocol: Specifically, As ES cells, those cultured for maintenance by conventional culture method without feeder cells supplemented with 1% fetal calf serum, 10% KSR (Knockout Serum Replacement), and LIF were used for SFEB method (see, Neuron, Vol. 28: 31-40 (2000)). Next, after ES cell colonies were subjected to trypsin/EDTA treatment to make single cells, 10 ml of the cells (6×10^4 cells/ml) were seeded on cell non-adhesive culture plastic plate (diameter: 10 cm), and incubated at 37° C., 5% CO2 for five days. As medium, differentiation medium composed of 500 ml of GMEM, 5 ml of 100×NEAA, 5 ml of 100×pyruvate, and 0.5 ml of 1×10^−1 M 2-mercaptoethanol, and 5% KSR (Knockout Serum Replacement).
Next, For quantitative analysis, mouse ES cells wherein GFP (green fluorescent protein) was knocked in the nerve marker Sox1 gene by homologous recombination (hereinafter abbreviated as Sox1/GFP-mES cells as required; see Nature Biotechnology Vol. 21: 183-186 (2003)) were cultured by the SFEB method. The culture conditions were the same as those for the SFEB method described in 1.1. above except that Sox1/GFP-mES cells were used as the ES cells.
Next, to further improve the efficiency of differentiation into nervous system cells by the SFEB method, the present inventors attempted to determine whether or not the efficiency of differentiation into nervous system cells was improved by inhibiting Nodal, Wnt, and BMP, which are promoters of differentiation into mesodermal cells.
Next, we tested effects of Nodal and Wnt by adding Nodal protein (manufactured by R&D) and Wnt3a protein (manufactured by R&D) to SFEB culture.

The subject of the next assay is EB5 cells. Put plainly: SFEB culture, differentiation into retinal precursor cells (Rx, rhodopsin immunostaining). It counts as cell-based, mouse. The procedure: EB5 cells were subjected to serum-free floating culture by the SFEB method for 5 days, after which cell clamps as is were seeded to a cell culture slide coated with poly-D lysine/laminin/fibronectin, and cultured while in the KSR-containing differentiation medium for the SFEB method for a total of 8 days. Immunostaining was performed using an internally prepared antibody against Rx, a marker specific for retinal precursor cells; an Rx-positive cell population was identified in about 15-30% of the cell clamps (colonies). By treatment with 5% fetal calf serum or 100 ng/ml activin (manufactured by R&D) or treatment with 3-30 nM Shh during 3 to 5 days after the start of cultivation, the Rx positivity rate of colonies increased to 50% (about 2 times). […] Also, these cells were subjected to adhesion culture for a long time (a total of 14 to 18 days); a plurality of cells positive for the visual cell marker Crx or rhodopsin were identified in 1-5% of the colonies.

Assay [5] relates to ES cells. The assay is described as follows: SFEB culture then adhesion culture with Wnt3a, dorsal/ventral telencephalon markers. It counts as cell-based, mouse. The procedure: Mouse ES cells (EB5 cells) were subjected to serum-free floating culture by the SFEB method in the same manner as Example 1 for 5 days, after which they were dispersed by trypsin/EDTA treatment, seeded to a cell culture slide coated with poly-D lysine/laminin, and cultured in a differentiation medium (as described above) for 2 days, and then in a GMEM+N2 medium (composition: GMEM+1×N-2 Supplement (manufactured by Gibco, a supply of ×100 concentration was used after dilution), 0.1 mM non-essential amino acid, 1 mM sodium pyruvate, 0.1 mM 2-mercaptoethanol) for 3 days. The finally obtained differentiated cells were analyzed by the fluorescent antibody method using anti-Bf1 antibody. For comparison, neural differentiation from ES cells was performed by the SDIA method, and the cells obtained were analyzed by the fluorescent antibody method in the same manner.
ES cells were cultured by the SFEB method in the same manner as Examples 4 and 6 for 5 days to induce neural differentiation, subsequently dispersed by trypsin/EDTA treatment, seeded to a cell culture slide coated with poly-D lysine/laminin, and cultured. […] In the case of 50 ng/ml Wnt3a, about 75% of the Bf1-positive cells expressed the dorsal marker Pax6, and about 10 percent of them expressed Emx1, a marker of cerebrocortical precursor cells.

The mark [6] stands for this setting: Nodal protein 5 μg/ml, Wnt3a protein 50 ng/ml, during days 0-5 and days 2-5.
[7] abbreviates: Wnt3a 5 ng/ml or 50 ng/ml from Day 6, total 10 days.

For the molecule `CC1=C(/C=C/C(C)=C/C=C/C(C)=C/C(=O)O)C(C)(C)CCC1` [RA, retinoic acid], in assay [1], the “Bf1+ cells” value is given as less than 1%.

For the molecule “BMP4: BMP signal promoter, manufactured by R&D”, the neural differentiation result in the assay on ES cells [2] is recorded as “completely suppresses neural differentiation”. Moreover, the values for the cell type produced result in the assay on ES cells [2] (not flk1+ cells) and in the assay with ES cells [4] were “efficiently produces E-cad^+/Oct3/4^− cells” and “induces efficient differentiation into flk1^+ lateral plate mesoderm”, respectively. Also, the “Ki67 in the Math1-positive cells” value with ES cells [3] (0.5-1 nM BMP4) is “negative”. In addition, the “expression of Pax6, Zic1 in the Math1-positive cells” value in the assay with ES cells [3] (0.5-1 nM BMP4, most of these cells) is “did not express”.

B1: Nodal protein: Nodal protein (manufactured by R&D), Nodal signal promoter (protein, UniProt Q96S42 238-347, looked up)
Nodal homolog: HHLPDRSQLCRKVKFQVDFNLIGWGSWIIYPKQYNAYRCEGECPNPVGEEFHPTNHAYIQSLLKRYQPHRVPSTCCAPVKTKPLSMLYVDNGRVLLDHHKDMIVEECGCL
For B1, the “frequency of Sox1-GFP+ cells” value in the assay with Sox1/GFP-mES cells (setting [6]) was “significantly suppress”.

B2: activin: TGFβ family protein, Nodal signal promoter, manufactured by R&D (protein, UniProt P08476 311-426, looked up)
Inhibin beta A chain: GLECDGKVNICCKKQFFVSFKDIGWNDWIIAPSGYHANYCEGECPSHIAGTSGSSLSFHSTVINHYRMRGHSPFANLKSCCVPTKLRPMSMLYYDDGQNIIKKDIQNMIVEECGCS
modifications: Inhibin beta A chain activin A assumed
notes: TGFβ family protein, Nodal signal promoter, manufactured by R&D
Consider B2, for which the “Rx positivity rate of colonies” value in the assay on EB5 cells (5% fetal calf serum or 100 ng/ml activin or 3-30 nM Shh during 3 to 5 days, total 8 days, without: about 15-30%) turned out to be 50%. For the same molecule, in the assay with EB5 cells (same treatments, versus no treatment), the “increase of Rx positivity rate of colonies” value is reported as “about 2 times”.

B3: Lefty-A: anti-Nodal reagent (Nodal signal inhibitor), manufactured by R&D Company (protein, UniProt O00292 77-366, looked up)
Left-right determination …: RFSQSFREVAGRFLASEASTHLLVFGMEQRLPPNSELVQAVLRLFQEPVPKAALHRHGRLSPRSAQARVTVEWLRVRDDGSNRTSLIDSRLVSVHESGWKAFDVTEAVNFWQQLSRPRQPLLLQVSVQREHLGPLASGAHKLVRFASQGAPAGLGEPQLELHTLDLRDYGAQGDCDPEAPMTEGTRCCRQEMYIDLQGMKWAKNWVLEPPGFLAYECVGTCQQPPEALAFNWPFLGPRQCIASETASLPMIVSIKEGGRTRPQVVSLPNMRVQKCSCASDGALVPRRLQP
For the molecule B3, the “frequency of Sox1-GFP+ cells” value with Sox1/GFP-mES cells (added on Day 0 of SFEB, 5 μg/ml Lefty-A, 1 μg/ml Dkk1, 1.5 μg/ml BMPRIA-Fc receptobody) was “evaluate the frequency of Sox1-GFP^+ cells”. Besides, the “experiment-to-experiment variation of GFP expression value” in the assay on Sox1/GFP-mES cells is on record as “stabilized the value of GFP expression”.

B4: Dkk1: anti-Wnt reagent (Wnt signal inhibitor), manufactured by R&D Company (protein, UniProt O94907 32-266, looked up)
Dickkopf-related protein 1: TLNSVLNSNAIKNLPPPLGGAAGHPGSAVSAAPGILYPGGNKYQTIDNYQPYPCAEDEECGTDEYCASPTRGGDAGVQICLACRKRRKRCMRHAMCCPGNYCKNGICVSSDQNHFRGEIEETITESFGNDHSTLDGYSRRTTLSSKMYHTKGQEGSVCLRSSDCASGLCCARHFWSKICKPVLKEGQVCTKHRRKGSHGLEIFQRCYCGEGLSCRIQKDHHQASNSSRLHTCQRH
Regarding B4, the “experiment-to-experiment variation of GFP expression value” with Sox1/GFP-mES cells is listed as “stabilized the value of GFP expression”.

B5: Wnt3a: Wnt3a protein (manufactured by R&D), Wnt signal promoter (protein, UniProt P56704 19-352, looked up)
Protein Wnt-3a: SYPIWWSLAVGPQYSSLGSQPILCASIPGLVPKQLRFCRNYVEIMPSVAEGIKIGIQECQHQFRGRRWNCTTVHDSLAIFGPVLDKATRESAFVHAIASAGVAFAVTRSCAEGTAAICGCSSRHQGSPGKGWKWGGCSEDIEFGGMVSREFADARENRPDARSAMNRHNNEAGRQAIASHMHLKCKCHGLSGSCEVKTCWWSQPDFRAIGDFLKDKYDSASEMVVEKHRESRGWVETLRPRYTYFKVPTERDLVYYEASPNFCEPNPETGSFGTRDRTCNVSSHGIDGCDLLCCGRGHNARAERRREKCRCVFHWCCYVSCQECTRVYDVHTCK
As for B5, the “frequency of Sox1-GFP+ cells” value with Sox1/GFP-mES cells (setting [6]) was “significantly suppress”. Besides, in the assay on ES cells [5] (50 ng/ml Wnt3a), the “Bf1-positive cells expressing Emx1” value is reported as “about 10%” and the “Bf1-positive cells expressing dorsal marker Pax6” value is reported as “about 75%”. In addition, in the assay with ES cells [5] (setting [7]), the “number of cells positive for both NRx2.1 and Bf1 (ventral telencephalon markers)” value was “decreased remarkably”; the “number of cells positive for both Pax6 and Bf1 (dorsal telencephalon markers)” value is on record as “increased”.
